This is an account of results in patent US7452965.

Bridge positions count the residues as written; N and C are the ends. Ends that are not written are not given here.

Assay [1] has as its target HT29 protein (unidentified protease-sensitive cell surface protein on HT29 colon carcinoma cells that the RPM peptide binds). The assay can be described thus: competition with RPM displaying phage on HT29 cells, real time PCR.
The target is the same in assay [2]. The assay can be described thus: competition with RPM phage on HT29 cells, real time PCR.
Assay [3] shares this target. The assay can be described thus: competition of non-specific peptide with RPM phage on HT29 cells, real time PCR; 100% means no competition.
For assay [4] the target is unchanged. The assay can be described thus: competition of synthetic peptide with RPM phage on HT29 cells, real time PCR; percent of phage bound without competitor.

For CPIEDRPAC [RPA peptide (RPM peptide with the methionine mutated to alanine)], in assay [1], the EC50 was determined as 545 µM and the fold shift of the EC50 of competition against the RPM peptide is 100 fold.

Take CPIRPMEDC [RPM middle peptide … (SEQ ID NO: 137)]: the fold less potent than RPM in competition in assay [2] is more than 100 fold. As to CPIEDAPMC [APM peptide (RPM peptide with the arginine mutated to alanine)], in assay [1], the concentration for a half-maximal effect (EC50) was found to be 690 µM and the fold shift of the EC50 of competition against the RPM peptide was determined as 100 fold. Molecule CKHLGPQLC (disulfide 1-9 (inferred)) [non-specific peptide … (SEQ ID NO: 135), synthetic, oxidized to form a disulfide bond] yielded a percent of RPM phage binding remaining in assay [3] of 100%.

Regarding CPIEDRPMC (disulfide 1-9 (inferred)) [RPM peptide … (SEQ ID NO: 134), synthetic, oxidized to form a disulfide bond], the percent of RPM phage binding remaining in assay [4] is less than 4%. Besides, in assay [1], the EC50 was determined as 5 µM.
